Assay results as given in article PMC8466238, “Development of High Affinity Calcitonin Analog Fragments Targeting Extracellular Domains of Calcitonin Family Receptors” (Biomolecules, 2021).
Several values for one entry are separate records, joined by “and”; a condition that tells them apart may be missing. Equal entries are not always repeated. Where two headings read alike, the source gives them in different places. Where a SMILES comes first, the peptide text is derived from it. Where no end group is shown, it is not given here. [ ]: non-standard residue; d: D form. Hyp = O=C(O)[C@@H]1C[C@@H](O)CN1

T1: CTR ECD (Homo sapiens, UniProt P30988)
T1 construct: pHLsec/hCTR.34–141-H6 (H-pSL003); H6 (His6) (C); made in house; host or cells: HEK293T
T1 sequence (P30988 34-141): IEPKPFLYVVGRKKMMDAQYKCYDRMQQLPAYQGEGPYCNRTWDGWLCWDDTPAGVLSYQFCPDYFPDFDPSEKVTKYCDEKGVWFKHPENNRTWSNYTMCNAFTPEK

T2: RAMP1-CTR ECD fusion protein (hRAMP1.24–111-(GSA)3-hCTR.34–141-H6) (human, UniProt O60894 24-111; P30988 34-141)
T2 construct: human receptor activity-modifying protein 1 (RAMP1), extracellular domain, residues 24-111; linker, printed as (GSA)3; human calcitonin receptor (CTR), extracellular domain, residues 34-141; Secreted from a pHLsec-based vector; also called AMY receptor 1 ECD; RAMP1 ECD-CTR ECD fusion; source: HEK293T, transiently transfected, secreted to cell culture media, purified (IMAC, SEC)
T2 chain: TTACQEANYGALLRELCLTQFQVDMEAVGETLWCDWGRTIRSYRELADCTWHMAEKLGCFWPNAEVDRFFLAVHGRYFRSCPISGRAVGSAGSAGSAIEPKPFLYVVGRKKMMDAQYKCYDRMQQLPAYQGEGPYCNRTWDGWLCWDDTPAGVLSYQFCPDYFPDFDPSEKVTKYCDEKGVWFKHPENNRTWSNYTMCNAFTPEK

T3: RAMP2-CTR ECD fusion protein (hRAMP2.55–140-(GSA)3-hCTR.34–141-H6) (human, UniProt O60895 55-140; P30988 34-141)
T3 construct: human receptor activity-modifying protein 2 (RAMP2), extracellular domain, residues 55-140; linker, printed as (GSA)3; human calcitonin receptor (CTR), extracellular domain, residues 34-141; Secreted from a pHLsec-based vector; also called AMY receptor 2 ECD; RAMP2 ECD-CTR ECD fusion; source: HEK293T, transiently transfected, secreted to cell culture media, purified (IMAC, SEC)
T3 chain: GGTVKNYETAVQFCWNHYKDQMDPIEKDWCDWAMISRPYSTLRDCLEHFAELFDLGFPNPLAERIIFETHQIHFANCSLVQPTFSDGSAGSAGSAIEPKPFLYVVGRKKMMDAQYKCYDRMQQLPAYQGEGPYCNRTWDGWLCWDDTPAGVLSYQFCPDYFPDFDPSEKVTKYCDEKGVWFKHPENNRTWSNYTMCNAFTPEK

T4: RAMP3-CTR ECD fusion protein (hRAMP3.25–112-(GSA)3-hCTR.34–141-H6) (human, UniProt O60896 25-112; P30988 34-141)
T4 construct: human receptor activity-modifying protein 3 (RAMP3), extracellular domain, residues 25-112; linker, printed as (GSA)3; human calcitonin receptor (CTR), extracellular domain, residues 34-141; Secreted from a pHLsec-based vector; also called AMY receptor 3 ECD; RAMP3 ECD-CTR ECD fusion protein; source: HEK293S GnTI-, transiently transfected (PEI), secreted to cell culture media, purified (IMAC, SEC)
T4 chain: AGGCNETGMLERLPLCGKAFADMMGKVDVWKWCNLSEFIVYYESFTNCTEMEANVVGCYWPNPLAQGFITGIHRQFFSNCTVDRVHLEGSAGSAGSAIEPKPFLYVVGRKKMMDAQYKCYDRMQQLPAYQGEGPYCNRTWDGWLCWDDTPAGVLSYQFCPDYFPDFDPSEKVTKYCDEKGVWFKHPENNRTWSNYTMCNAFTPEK

T5: calcitonin receptor extracellular domain (hCTR.34–141-H6) (human, UniProt P30988 34-141)
T5 construct: human calcitonin receptor (CTR), extracellular domain, residues 34-141; Secreted from a pHLsec-based vector; also called CTR ECD; purified CTR ECD; source: HEK293T, transiently transfected, secreted to cell culture media, purified (IMAC, SEC)
T5 sequence (looked up): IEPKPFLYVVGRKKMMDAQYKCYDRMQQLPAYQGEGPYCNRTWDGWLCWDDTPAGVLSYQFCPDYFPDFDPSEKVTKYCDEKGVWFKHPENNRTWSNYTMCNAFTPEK


How the values were obtained:
CTR ECD = biological target: T1, CTR ECD; assay: FP competition peptide binding assay with purified CTR ECD, FITC-sCT(22–32) probe; conditions: for Ki: CTR ECD 500 nM, FITC-sCT(22–32) 10 nM, mean ± SD of N = 3 independent experiments
Excerpt: The overall procedures of FP peptide binding assay with receptor ECDs and FITC-labeled peptide probes were previously described. […] A SpectraiD5 (Molecular Devices, San Jose, CA, USA) was used to measure fluorescence polarization/anisotropy. Background (reaction buffer only) was subtracted for anisotropy calculation. For the SpectraiD5, G factor (0.38 for FITC-sCT(22–32) and 0.41 for FITC-AC413(6–25) and FITC-AC413(6–25) Y25P) was used to correct the instrumental bias for anisotropy calculation. The polarization (mP) of the FITC-peptide probes only (No receptor ECD) was set close to 50 mP. For the saturation binding assay, the anisotropy values were re-calculated when total fluorescence intensity was changed by more than 10% as previously described. […] Anisotropy values were used to produce non-linear regression curves with PRISM 5.0 (GraphPad software, San Diego, CA, USA) as previously described. KI indicates affinity values obtained from competition binding assay and it was calculated from the non-linear regression curves of anisotropy by using equations previously described. Concentrations of the FITC-labeled peptide and the total receptor protein and the affinity of the FITC-labeled peptide for the receptor protein were incorporated into the equations for the KI calculation of the competitive peptide ligand. Two technical replicates were used for each receptor concentration in the peptide-binding curve. SEM of the anisotropy values of the two replicates at each receptor concentration were presented as error bars in the representative peptide-binding curves. When the error bars were shorter than the height of the symbol, they were omitted in the representative curves. At least three independent peptide binding experiments were performed to obtain three independent peptide-binding curves. Mean and standard deviation of peptide ligand affinity were calculated from them.

[1] = biological target: T2, RAMP1-CTR ECD fusion protein …; assay: fluorescence polarisation; competition binding, full curves: FITC-AC413(6–25) Y25P probe 10 nM, RAMP1-CTR ECD 77 nM, RAMP2-CTR ECD 67 nM or RAMP3-CTR ECD 252 nM, competitive peptide at multiple concentrations, all in solution; KI from non-linear regression of anisotropy; conditions: both partners purified
[2] = biological target: T3, RAMP2-CTR ECD fusion protein …; assay: as above; conditions: both partners purified
[3] = biological target: T4, RAMP3-CTR ECD fusion protein …; assay: as above; conditions: both partners purified
[4] = biological target: T5, calcitonin receptor extracellular …; assay: fluorescence polarisation; competition binding, full curves: FITC-sCT(22–32) probe 10 nM, CTR ECD 500 nM, competitive peptide at multiple concentrations, all in solution; KI from non-linear regression of anisotropy; conditions: both partners purified
[5] = Figure 2b experiment set, read-out: pKI Mean ± SD (converted)
[6] = Figure 1d experiment set, pKI = –log10[KI] (M)

Ki [1]	pKI [1]	Ki [2]	pKI [2]	Ki [3]	pKI [3]	Ki [4]	pKI [4]	Molecule	other results
						343 nM	6.46 -log10(M)	YPRTNTGPGTP-NH2 (salmon calcitonin (sCT), residues 22-32, with S29P; numbers count on: the mature 32-residue hormone; source: synthetic peptide (Genscript, HPLC-purified)) [sCT(22–32) S29P]	
887 nM	6.05 -log10(M)	1430 nM	5.85 -log10(M)	995 nM	6 -log10(M)	887 nM	6.05 -log10(M)	YPRTNTGSGT[Hyp]-NH2 (N-terminus assumed; SMILES C[C@@H](O)[C@H](NC(=O)[C@H](CC(N)=O)NC(=O)[C@@H](NC(=O)[C@H](CCCNC(=N)N)NC(=O)[C@@H]1CCCN1C(=O)[C@@H](N)Cc1ccc(O)cc1)[C@@H](C)O)C(=O)NCC(=O)N[C@@H](CO)C(=O)NCC(=O)N[C@H](C(=O)N1C[C@H](O)C[C@H]1C(N)=O)[C@@H](C)O, salmon calcitonin (sCT), residues 22-32, with P32HYP; numbers count on: the mature 32-residue hormone; Residue 32 is hydroxyproline, not plain proline; source: synthetic peptide (Genscript, HPLC-purified)) [sCT(22–32) P32HYP]	

Continued, molecule first:

Molecule	Ki [1]	pKI [1]	Ki [2]	pKI [2]	Ki [3]	pKI [3]	Ki [4]	pKI [4]	other results
YPRTDTGSGTP-NH2 [sCT(22–32) N26D]									Ki (CTR ECD; [5]): 9.77e-07 M; Ki (CTR ECD; [6]): 1e-06 M
YPRTDTGVGTP-NH2 [sCT(22–32) N26D/S29V]									Ki (CTR ECD; [5]): 5.89e-07 M
C[C@@H](O)[C@H](NC(=O)[C@H](CC(=O)O)NC(=O)[C@@H](NC(=O)[C@H](CCCNC(=N)N)NC(=O)[C@@H]1CCCN1C(=O)[C@@H](N)Cc1ccc(O)cc1)[C@@H](C)O)C(=O)NCC(=O)N1C[C@H](O)C[C@H]1C(=O)NCC(=O)N[C@H](C(=O)N1CCC[C@H]1C(N)=O)[C@@H](C)O [sCT(22–32) N26D/S29HYP] (H-YPRTDTG[Hyp]GTP-NH2; N-terminus assumed)									Ki (CTR ECD; Figure 3b experiment set, read-out: pKI Mean ± SD (converted)): 3.16e-06 M; affinity decrease for the CTR ECD compared to sCT(22–32) with N26D/S29P mutations (CTR ECD; Figure 3b, ratio of KI values, versus sCT(22–32) N26D/S29P): 13 fold
YPRTNTGPGTP-NH2 [sCT(22–32) S29P]									Ki (CTR ECD; [6]): 3.47e-07 M
YPRTNTGSGTP-NH2 (salmon calcitonin (sCT), residues 22-32; numbers count on: the mature 32-residue hormone; also called wild-type sCT(22–32); salmon calcitonin fragment 22–32; source: synthetic peptide (Genscript, HPLC-purified)) [sCT(22–32)]	2550 nM	5.59 -log10(M)	2800 nM	5.55 -log10(M)	2560 nM	5.59 -log10(M)	2030 nM and 1760 nM	5.75 -log10(M) and 5.69 -log10(M)	
YPRTDTGAGTP-NH2 (salmon calcitonin (sCT), residues 22-32, with N26D and S29A; numbers count on: the mature 32-residue hormone; source: synthetic peptide (Genscript, HPLC-purified)) [sCT(22–32) N26D/S29A]							437 nM	6.36 -log10(M)	
YPRTDTG[Hyp]GTP-NH2 (N-terminus assumed; SMILES C[C@@H](O)[C@H](NC(=O)[C@H](CC(=O)O)NC(=O)[C@@H](NC(=O)[C@H](CCCNC(=N)N)NC(=O)[C@@H]1CCCN1C(=O)[C@@H](N)Cc1ccc(O)cc1)[C@@H](C)O)C(=O)NCC(=O)N1C[C@H](O)C[C@H]1C(=O)NCC(=O)N[C@H](C(=O)N1CCC[C@H]1C(N)=O)[C@@H](C)O, salmon calcitonin (sCT), residues 22-32, with N26D and S29HYP; printed as YPRTDTG[HYP]GTP-NH2, the hydroxyproline at 29 is written here as P; numbers count on: the mature 32-residue hormone; Residue 29 is hydroxyproline, not plain proline; source: synthetic peptide (Genscript, HPLC-purified)) [sCT(22–32) N26D/S29HYP]							3180 nM	5.5 -log10(M)	
YPRTDTGPGT[Hyp]-NH2 (salmon calcitonin (sCT), residues 22-32, with N26D, S29P and P32HYP; numbers count on: the mature 32-residue hormone; Residue 32 is hydroxyproline, not plain proline; also called the mutated sCT(22–32); sCT(22–32) with the combined mutations (N26D, S29P, and P32HYP); source: synthetic peptide (Genscript, HPLC-purified)) [sCT(22–32) N26D/S29P/P32HYP]	124 nM	6.91 -log10(M)	340 nM	6.47 -log10(M)	118 nM	6.93 -log10(M)	95 nM	7.02 -log10(M)	
YPRTDTGPGTP-NH2 (salmon calcitonin (sCT), residues 22-32, with N26D and S29P; numbers count on: the mature 32-residue hormone; source: synthetic peptide (Genscript, HPLC-purified)) [sCT(22–32) N26D/S29P]	381 nM	6.42 -log10(M)	470 nM	6.33 -log10(M)	333 nM	6.48 -log10(M)	239 nM and 314 nM	6.62 -log10(M) and 6.5 -log10(M)	
YPRTDTGSGTP-NH2 (salmon calcitonin (sCT), residues 22-32, with N26D; numbers count on: the mature 32-residue hormone; also called sCT(22–32) N26D backbone peptide; source: synthetic peptide (Genscript, HPLC-purified)) [sCT(22–32) N26D]							980 nM and 1000 nM	6.01 -log10(M) and 6 -log10(M)	
YPRTDTGVGTP-NH2 (salmon calcitonin (sCT), residues 22-32, with N26D and S29V; numbers count on: the mature 32-residue hormone; source: synthetic peptide (Genscript, HPLC-purified)) [sCT(22–32) N26D/S29V]							591 nM	6.23 -log10(M)	
